Patent US20230242675A1 (SHANGHAI EPIMAB BIOTHERAPEUTICS, published 2023)

How the values were obtained:
[1] = biological target: T1, human PD-L1/His fusion protein (human, UniProt Q9NZQ7 19-239); test: BLI Octet RED96, antibody on AHC sensor, single conc. PD-L1/His; test group 4
Description: (§1) Briefly, antibodies were characterized for affinities and binding kinetics by Octet®RED96 biolayer interferometry (Pall ForteBio LLC). Antibodies were captured by Anti-hIgG Fc Capture (AHC) Biosensors (Pall) at a concentration of 100 nM for 30 seconds. Sensors were then dipped into running buffer (1×pH 7.2 PBS, 0.05% Tween 20, 0.1% BSA) for 60 seconds to check baseline. Binding was measured by dipping sensors into a single concentration of recombinant human PD-L1/His fusion protein (Novoprotein). Dissociation was followed by dipping sensors into running buffer for 1200 seconds. The association and dissociation curves were fitted to a 1:1 Langmuir binding model using ForteBio Data Analysis software (Pall). […] The off-rate ratio serves as a data normalization. Accordingly, in each test group, the off-rate ratios of the humanized antibodies can be compared with that of the chimeric antibody, and the off-rate ratios of each of the humanized antibodies can be compared to one another within all test groups.

[2] = biological target: T1, human PD-L1/His fusion protein; test: BLI off-rate; test group 4
Description: as §1

[3] = biological target: T1, human PD-L1/His fusion protein; test: BLI off-rate; test group 3
Description: as §1

[4] = biological target: T1, human PD-L1/His fusion protein; test: BLI Octet RED96, antibody on AHC sensor, single conc. PD-L1/His; test group 3
Description: as §1

[5] = biological target: T1, human PD-L1/His fusion protein; test: BLI off-rate; test group 2
Description: as §1, with “All 15 antibodies in Table 13 were assayed for and ranked by dissociation rate constant (koff). […] Briefly,” for “Briefly,”, “check the” for “check”

[6] = biological target: T1, human PD-L1/His fusion protein; test: BLI Octet RED96, antibody on AHC sensor, single conc. PD-L1/His; test group 2
Description: as §1, with “All 15 antibodies in Table 13 were assayed for and ranked by dissociation rate constant (koff). […] Briefly,” for “Briefly,”, “check the” for “check”

T1 sequence (Q9NZQ7 19-239 limits assumed): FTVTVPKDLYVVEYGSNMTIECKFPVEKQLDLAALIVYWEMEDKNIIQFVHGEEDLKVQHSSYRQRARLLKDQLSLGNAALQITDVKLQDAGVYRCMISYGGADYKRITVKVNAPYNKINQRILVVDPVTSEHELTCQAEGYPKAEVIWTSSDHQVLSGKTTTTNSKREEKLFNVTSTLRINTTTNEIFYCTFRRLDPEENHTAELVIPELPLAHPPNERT

Row | Binder | koff [1] | Off-Rate Ratio to that of EM0005-87c [2] | Off-Rate Ratio to that of EM0005-90c [3] | koff [4] | other results
1 | HuEM0005-87-19 (antibody, human IgG1, V domains shown) VH: EVQLVQSGAEVKKPGASVKVSCKASGYSFTDYYINWVRQAPGQGLEWIGETIPNTGGTTYNQKFKAKATLTVDKSTSTAYMELSSLRSEDTAVYYCARYQSGSPFAYWGQGTTVTVSS VL: EIVMTQSPATLSVSPGERATLSCKASQNVGTAVAWYQQKPGQAPRLLIYSASNRYTGVPDRFTGSGSGTEFTLTISSLQSEDFAVYYCQQHYSTPYTFGGGTKLEIK | 0.000782 s⁻¹ | 87% | – | – | –
2 | HuEM0005-87-22 (antibody, human IgG1, V domains shown) VH: EVQLVQSGAEVKKPGASVKVSCKASGYTFTDYYINWVRQAPGQGLEWMGETIPNTGGTTYNQKFKARVTLTVDTSTSTVYMELSSLRSEDTAVYYCARYQSGSPFAYWGQGTTVTVSS VL: DIVMTQSPATLSVSPGERATLSCKASQNVGTAVAWYQQKPGQAPRLLIYSASNRYTGVPDRFTGSGSGTDFTLTISSLQSEDFAVYYCQQHYSTPYTFGGGTKLEIK | 0.000738 s⁻¹ | 82% | – | – | –
3 | HuEM0005-87-23 (antibody, human IgG1, V domains shown) VH: EVQLVQSGAEVKKPGASVKVSCKASGYTFTDYYINWVRQAPGQGLEWIGETIPNTGGTTYNQKFKARVTLTVDKSTSTVYMELSSLRSEDTAVYYCARYQSGSPFAYWGQGTTVTVSS VL: DIVMTQSPATLSVSPGERATLSCKASQNVGTAVAWYQQKPGQAPRLLIYSASNRYTGVPDRFTGSGSGTDFTLTISSLQSEDFAVYYCQQHYSTPYTFGGGTKLEIK | 0.000905 s⁻¹ | 101% | – | – | –
4 | HuEM0005-87-20 (antibody, human IgG1, V domains shown) VH: EVQLVQSGAEVKKPGASVKVSCKASGYSFTDYYINWVKQAPGQGLEWIGETIPNTGGTTYNQKFKAKATLTRDKSTSTAYMELKSLRSEDTAVYYCARYQSGSPFAYWGQGTTVTVSS VL: EIVMTQSPATLSVSPGERATLSCKASQNVGTAVAWYQQKPGQAPRLLIYSASNRYTGVPDRFTGSGSGTEFTLTISSLQSEDFAVYYCQQHYSTPYTFGGGTKLEIK | 0.000801 s⁻¹ | 89% | – | – | –
5 | HuEM0005-87-21 (antibody, human IgG1, V domains shown) VH: EVQLVQSGAEVKKPGASVKVSCKASGYTFTDYYINWVRQAPGQGLEWMGETIPNTGGTTYNQKFKARVTMTVDTSTSTVYMELSSLRSEDTAVYYCARYQSGSPFAYWGQGTTVTVSS VL: DIVMTQSPATLSVSPGERATLSCKASQNVGTAVAWYQQKPGQAPRLLIYSASNRYTGVPDRFTGSGSGTDFTLTISSLQSEDFAVYYCQQHYSTPYTFGGGTKLEIK | 0.000522 s⁻¹ | 58% | – | – | –
6 | EM0005-90c(G55A) (antibody, human IgG1, V domains shown, Chimeric antibody with G55A in CDR-H2; also called HuEM0005-90C-G55A) VH: QVQLKQSGAELVRPGSSVKMSCKTSGYTFTSHSINWVKQRPGQGLEWIGYMYIGNAYTEYNEKFKGKATLTSDTSSTTAYMQLSSLTSEDSAIYFCAKITPVVAPYVMDYWGQGTSVTVSS VL: DIVMTQTHKFMSTSVGDRVSITCKASQDVGTAVAWYQQKPGQSPKLLIYWASTRHTGVPDRFTGSGSGTDFTLTISNVQSEDLADYFCQQYSSYPYTFGGGTKLELK | 0.00255 s⁻¹ | – | – | – | Off-Rate Ratio to that of EM0005-90c [2]: 113%
7 | HuEM0005-86-7 (antibody, human IgG1, V domains shown) VH: EVQLVQSGAEVKKPGASVKVSCKASGYTFTTYGINWVRQAPGQGLEWIGYIYIGNGYTEYNEKFKGRVTLTSDPSTRTAYMELSSLRSDDTAVYYCARDLMVIAPKTMDYWGQGTTVTVSS VL: DIQMTQSPSSVSASVGDRVTITCKASQDVGTAVAWYQQKPGKAPKLLIYWASTRHTGVPDRFTGSGSGTDFTLTISSLQPEDFATYYCQQYSSYPYTFGGGTKVEIK | – | – | – | – | Off-Rate Ratio to that of EM0005-86c [5]: 73%; koff [6]: 0.00131 s⁻¹
8 | HuEM0005-86-8 (antibody, human IgG1, V domains shown) VH: EVQLVQSGAEVKKPGASVKVSCKASGYTFTTYGINWVRQAPGQGLEWMGYIYIGNGYTEYNEKFKGRVTMTTDTSTSTAYMELSSLRSDDTAVYYCARDLMVIAPKTMDYWGQGTTVTVSS VL: DIQMTQSPSSVSASVGDRVTITCKASQDVGTAVAWYQQKPGKSPKLLIYWASTRHTGVPDRFTGSGSGTDFTLTISSLQPEDFATYFCQQYSSYPYTFGGGTKVEIK | – | – | – | – | Off-Rate Ratio to that of EM0005-86c [5]: 87%; koff [6]: 0.00155 s⁻¹

Now from value to binder, other results behind:

Row | koff [1] | Off-Rate Ratio to that of EM0005-87c [2] | Off-Rate Ratio to that of EM0005-90c [3] | koff [4] | Binder | other results
9 | 0.00101 s⁻¹ | 113% | – | – | HuEM0005-87-24 (antibody, human IgG1, V domains shown) VH: EVQLVQSGAEVKKPGASVKVSCKASGYSFTDYYINWVRQAPGQGLEWIGETIPNTGGTTYNQKFKAKATLTVDKSTSTAYMELSSLRSEDTAVYYCARYQSGSPFAYWGQGTTVTVSS VL: DIVMTQSPATLSVSPGERATLSCKASQNVGTAVAWYQQKPGQAPRLLIYSASNRYTGVPDRFTGSGSGTDFTLTISSLQSEDFAVYYCQQHYSTPYTFGGGTKLEIK | –
10 | – | – | 115% | 0.000439 s⁻¹ | HuEM0005-90-13 (antibody, human IgG1, V domains shown) VH: EVQLVQSGAEVKKPGASVKVSCKASGYTFTSHSINWVRQATGQGLEWMGYMYIGNGYTEYNEKFKGRVTLTSNTSISTAYMELSSLRSEDTAVYYCAKITPVVAPYVMDYWGQGTSVTVSS VL: DIQMTQSPSFLSASVGDRVTITCKASQDVGTAVAWYQQKPGKAPKLLIYWASTRHTGVPDRFTGSGSGTEFTLTISSLQPEDFATYYCQQYSSYPYTFGQGTKLEIK | –
11 | – | – | 87% | 0.000334 s⁻¹ | HuEM0005-90-18 (antibody, human IgG1, V domains shown) VH: EVQLVQSGAEVKKPGASVKVSCKASGYTFTSHSINWVRQATGQGLEWIGYMYIGNGYTEYNEKFKGRATLTSNTSISTAYMELSSLRSEDTAVYYCAKITPVVAPYVMDYWGQGTSVTVSS VL: DIVMTQSPSFLSASVGDRVTITCKASQDVGTAVAWYQQKPGKAPKLLIYWASTRHTGVPDRFTGSGSGTDFTLTISSLQPEDFATYYCQQYSSYPYTFGQGTKLEIK | –
12 | – | – | 98% | 0.000376 s⁻¹ | HuEM0005-90-14 (antibody, human IgG1, V domains shown) VH: EVQLVQSGAEVKKPGASVKVSCKASGYTFTSHSINWVRQATGQGLEWIGYMYIGNGYTEYNEKFKGRATLTSNTSISTAYMELSSLRSEDTAVYYCAKITPVVAPYVMDYWGQGTSVTVSS VL: DIQMTQSPSFLSASVGDRVTITCKASQDVGTAVAWYQQKPGKAPKLLIYWASTRHTGVPDRFTGSGSGTEFTLTISSLQPEDFATYYCQQYSSYPYTFGQGTKLEIK | –
13 | – | – | 106% | 0.000405 s⁻¹ | HuEM0005-90-17 (antibody, human IgG1, V domains shown) VH: EVQLVQSGAEVKKPGASVKVSCKASGYTFTSHSINWVRQATGQGLEWMGYMYIGNGYTEYNEKFKGRVTLTSNTSISTAYMELSSLRSEDTAVYYCAKITPVVAPYVMDYWGQGTSVTVSS VL: DIVMTQSPSFLSASVGDRVTITCKASQDVGTAVAWYQQKPGKAPKLLIYWASTRHTGVPDRFTGSGSGTDFTLTISSLQPEDFATYYCQQYSSYPYTFGQGTKLEIK | –
14 | – | – | 101% | 0.000387 s⁻¹ | HuEM0005-90-16 (antibody, human IgG1, V domains shown) VH: EVQLVQSGAEVKKPGASVKVSCKTSGYTFTSHSINWVRQATGQGLEWIGYMYIGNGYTEYNEKFKGRATLTSNTSISTAYMELSSLRSEDTAVYYCAKITPVVAPYVMDYWGQGTSVTVSS VL: DIQMTQSPSFLSASVGDRVTITCKASQDVGTAVAWYQQKPGKAPKLLIYWASTRHTGVPDRFTGSGSGTEFTLTISSLQPEDFATYYCQQYSSYPYTFGQGTKLEIK | –
15 | – | – | 131% | 0.000499 s⁻¹ | HuEM0005-90-15 (antibody, human IgG1, V domains shown) VH: EVQLVQSGAEVKKPGASVKVSCKTSGYTFTSHSINWVRQATGQGLEWMGYMYIGNGYTEYNEKFKGRVTMTSNTSISTAYMELSSLRSEDTAVYYCAKITPVVAPYVMDYWGQGTSVTVSS VL: DIQMTQSPSFLSASVGDRVTITCKASQDVGTAVAWYQQKPGKAPKLLIYWASTRHTGVPDRFTGSGSGTEFTLTISSLQPEDFATYYCQQYSSYPYTFGQGTKLEIK | –
16 | 0.00249 s⁻¹ | – | – | – | HuEM0005-90-20 (antibody, human IgG1, V domains shown) VH: EVQLVQSGAEVKKPGASVKVSCKTSGYTFTSHSINWVRQATGQGLEWIGYMYIGNGYTEYNEKFKGRATLTSNTSISTAYMELSSLRSEDTAVYYCAKITPVVAPYVMDYWGQGTSVTVSS VL: DIVMTQSPSFLSASVGDRVTITCKASQDVGTAVAWYQQKPGKAPKLLIYWASTRHTGVPDRFTGSGSGTDFTLTISSLQPEDFATYYCQQYSSYPYTFGQGTKLEIK | Off-Rate Ratio to that of EM0005-90c [2]: 111%
